Data on 61 substances can be found in patent US10464978B2, “Peptides and combination of peptides for use in immunotherapy against ovarian cancer and other cancers” (immatics biotechnologies GmbH, priority 2015, dated 2019).

The target of the test is HLA-A*02:01 (Homo sapiens, UniProt P04439, D140Y/D185E/D98H/E176V/E277Q/G131W/G231S/I119V/I121R/I166T/I218V/L300P/L318F/N151K/N90K/P208A/P217A/Q86G/Q94H/R138H/R169H/T345S). Description: MHC binding assay: UV-ligand exchange with beta2m ELISA (peptide exchange yield). Conditions: binding to HLA-A*02:01. The method, boiled down:
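Peptide-MHC complexes formed by UV-ligand exchange, a UV-cleavable peptide being replaced by the candidate peptide. Exchange products diluted 100-fold, captured on streptavidin-coated plates for 1h at 37° C, then detected with 2 ug/ml HRP anti-β2m (1h, 37° C) and TMB, absorbance 450 nm; value is exchange yield.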
With “493 (GLLGEKTQDLIGV; listed as Homo sapiens) [compound 493]”, the “Peptide exchange (MHC class I binding score, peptide exchange yield)” value (“Peptide exchange” below) is ““+++” (≥50 = +++)”.

With “574 (YLLQEPPRTV; listed as Homo sapiens) [compound 574]”, the “Peptide exchange” value is recorded as ““++” (≥20% = ++)”.

As to “234 (ALMEDTGRQML; listed as Homo sapiens) [compound 234]”, the “Peptide exchange” value is listed as ““++” (≥20% = ++)”.

For the substance “211 (LLWPGAALL; listed as Homo sapiens) [compound 211]”, the “Peptide exchange” value is on record as ““++” (≥20% = ++)”.

In the case of “265 (LLFGGTKTV; listed as Homo sapiens) [compound 265]”, the “Peptide exchange” value was ““++” (≥20% = ++)”.

Turning to “172 (VLYSYTIITV; listed as Homo sapiens) [compound 172]”, the “Peptide exchange” value is on record as ““++” (≥20% = ++)”.

“233 (VLSETLYEL; listed as Homo sapiens) [compound 233]”: the “Peptide exchange” value is ““++” (≥20% = ++)”.

On to “597 (KLLEGQVIQL; listed as Homo sapiens) [compound 597]”, for which the “Peptide exchange” value is listed as ““+++” (≥50 = +++)”.

Take “235 (YLNDLHEVLL; listed as Homo sapiens) [compound 235]”: the “Peptide exchange” value is ““++++” (≥75% = ++++)”.

As to “187 (RQISIRGIVGV; listed as Homo sapiens) [compound 187]”, the “Peptide exchange” value is ““+++” (≥50 = +++)”.

Take “168 (KILDADIQL; listed as Homo sapiens) [compound 168]”: the “Peptide exchange” value was ““++++” (≥75% = ++++)”.

With “25 (FLPDEPYIKV; listed as Homo sapiens) [compound 25]”, the “Peptide exchange” value is ““+++” (≥50 = +++)”.

Regarding “237 (ALLEASGTLLL; listed as Homo sapiens) [compound 237]”, the “Peptide exchange” value is recorded as ““++++” (≥75% = ++++)”.

Consider “38 (FLLEDDIHVS; listed as Homo sapiens) [compound 38]”, for which the “Peptide exchange” value was ““+++” (≥50 = +++)”.

“274 (SLLFSLFEA; listed as Homo sapiens) [compound 274]”: the “Peptide exchange” value was ““++” (≥20% = ++)”.

Consider “542 (RVWDISTVSSV; listed as Homo sapiens) [compound 542]”, for which the “Peptide exchange” value is listed as ““+++” (≥50 = +++)”.

For “566 (VIADGGIQNV; listed as Homo sapiens) [compound 566]”, the “Peptide exchange” value is recorded as ““++” (≥20% = ++)”.

“601 (SAFPFPVTV; listed as Homo sapiens) [compound 601]”: the “Peptide exchange” value is reported as ““+++” (≥50 = +++)”.

For the substance “16 (VLFQGQASL; listed as Homo sapiens) [compound 16]”, the “Peptide exchange” value is recorded as ““+++” (≥50 = +++)”.

Turning to “204 (KIAENVEEV; listed as Homo sapiens) [compound 204]”, the “Peptide exchange” value was ““++” (≥20% = ++)”.

On to “261 (YVLEFLEEI; listed as Homo sapiens) [compound 261]”, for which the “Peptide exchange” value is recorded as ““++” (≥20% = ++)”.

As to “127 (KIGDEPPKV; listed as Homo sapiens) [compound 127]”, the “Peptide exchange” value was ““++” (≥20% = ++)”.

Turning to “492 (SLFDGFADGLGV; listed as Homo sapiens) [compound 492]”, the “Peptide exchange” value is on record as ““+++” (≥50 = +++)”.

As for “511 (FLDPYCSASV; listed as Homo sapiens) [compound 511]”, the “Peptide exchange” value is listed as ““++” (≥20% = ++)”.

Consider “572 (ALADLIEKELSV; listed as Homo sapiens) [compound 572]”, for which the “Peptide exchange” value is on record as ““+++” (≥50 = +++)”.

Take “616 (VLIDEVESL; listed as Homo sapiens) [compound 616]”: the “Peptide exchange” value is given as ““+++” (≥50 = +++)”.

As to “184 (YLMDINGKMWL; listed as Homo sapiens) [compound 184]”, the “Peptide exchange” value is given as ““+++” (≥50 = +++)”.

For “474 (YLDPALELGPRNV; listed as Homo sapiens) [compound 474]”, the “Peptide exchange” value was ““+++” (≥50 = +++)”.

“383 (ALLELENSVTL; listed as Homo sapiens) [compound 383]”: the “Peptide exchange” value was ““+++” (≥50 = +++)”.

For “557 (KLYDDMIRL; listed as Homo sapiens) [compound 557]”, the “Peptide exchange” value is ““+++” (≥50 = +++)”.

With “382 (ALQNYIKEA; listed as Homo sapiens) [compound 382]”, the “Peptide exchange” value is given as ““++” (≥20% = ++)”.

In the case of “98 (LIIDQADIYL; listed as Homo sapiens) [compound 98]”, the “Peptide exchange” value is ““+++” (≥50 = +++)”.

Consider “130 (FLWNGEDSALL; listed as Homo sapiens) [compound 130]”, for which the “Peptide exchange” value was ““+++” (≥50 = +++)”.

With “48 (ALAELYEDEV; listed as Homo sapiens) [compound 48]”, the “Peptide exchange” value is on record as ““+++” (≥50 = +++)”.

As to “486 (AVMESIQGV; listed as Homo sapiens) [compound 486]”, the “Peptide exchange” value is on record as ““+++” (≥50 = +++)”.

As to “622 (RLLGEEVVRVLQA; listed as Homo sapiens) [compound 622]”, the “Peptide exchange” value is reported as ““+++” (≥50 = +++)”.

Consider “412 (YLDDLNEGVYI; listed as Homo sapiens) [compound 412]”, for which the “Peptide exchange” value is listed as ““++” (≥20% = ++)”.

Consider “394 (LLAVIGGLVYL; listed as Homo sapiens) [compound 394]”, for which the “Peptide exchange” value is listed as ““+++” (≥50 = +++)”.

As for “223 (ALLENIALYL; listed as Homo sapiens) [compound 223]”, the “Peptide exchange” value is reported as ““+++” (≥50 = +++)”.

For “376 (AMFESSQNVLL; listed as Homo sapiens) [compound 376]”, the “Peptide exchange” value is ““++” (≥20% = ++)”.

Regarding “81 (FLFSQLQYL; listed as Homo sapiens) [compound 81]”, the “Peptide exchange” value is given as ““++” (≥20% = ++)”.

For “225 (SLLKVLPAL; listed as Homo sapiens) [compound 225]”, the “Peptide exchange” value is on record as ““+++” (≥50 = +++)”.

Turning to “335 (YSLSSVVTV; listed as Homo sapiens) [compound 335]”, the “Peptide exchange” value is on record as ““+++” (≥50 = +++)”.

As to “94 (YLIDIKTIAI; listed as Homo sapiens) [compound 94]”, the “Peptide exchange” value was ““++” (≥20% = ++)”.

On to “559 (VTVPPGPSL; listed as Homo sapiens) [compound 559]”, for which the “Peptide exchange” value is reported as ““++” (≥20% = ++)”.

Turning to “403 (KLYDRILRV; listed as Homo sapiens) [compound 403]”, the “Peptide exchange” value is ““++” (≥20% = ++)”.

For the substance “563 (WLLPYNGVTV; listed as Homo sapiens) [compound 563]”, the “Peptide exchange” value is reported as ““+++” (≥50 = +++)”.

For the substance “619 (ALQDRVPLA; listed as Homo sapiens) [compound 619]”, the “Peptide exchange” value is ““+++” (≥50 = +++)”.

Consider “49 (YLPAVFEEV; listed as Homo sapiens) [compound 49]”, for which the “Peptide exchange” value was ““+++” (≥50 = +++)”.

For the substance “598 (FLFPHSVLV; listed as Homo sapiens) [compound 598]”, the “Peptide exchange” value is listed as ““+++” (≥50 = +++)”.

For the substance “336 (ILLTAIVQV; listed as Homo sapiens) [compound 336]”, the “Peptide exchange” value was ““+++” (≥50 = +++)”.

For “47 (ILLSVPLLVV; listed as Homo sapiens) [compound 47]”, the “Peptide exchange” value is ““++” (≥20% = ++)”.

For the substance “349 (SLTEYLQNV; listed as Homo sapiens) [compound 349]”, the “Peptide exchange” value was ““++++” (≥75% = ++++)”.

For “78 (SLFSSLEPQIQPV; listed as Homo sapiens) [compound 78]”, the “Peptide exchange” value is recorded as ““+++” (≥50 = +++)”.

On to “145 (FLATSGTLAGI; listed as Homo sapiens) [compound 145]”, for which the “Peptide exchange” value was ““++” (≥20% = ++)”.

For “299 (YLLETSGNL; listed as Homo sapiens) [compound 299]”, the “Peptide exchange” value is ““+++” (≥50 = +++)”.

Take “256 (FLPPEHTIVYI; listed as Homo sapiens) [compound 256]”: the “Peptide exchange” value is recorded as ““+++” (≥50 = +++)”.

As to “504 (GLSDGNPSL; listed as Homo sapiens) [compound 504]”, the “Peptide exchange” value was ““++” (≥20% = ++)”.

For the substance “496 (FLVEKQPPQV; listed as Homo sapiens) [compound 496]”, the “Peptide exchange” value is listed as ““+++” (≥50 = +++)”.

With “562 (YLEELPEKLKL; listed as Homo sapiens) [compound 562]”, the “Peptide exchange” value was ““+++” (≥50 = +++)”.

For the substance “480 (ALLEDSCHYL; listed as Homo sapiens) [compound 480]”, the “Peptide exchange” value is ““+++” (≥50 = +++)”.
